Columns and labels:
[1] = test system: human corneal epithelial cells; experiment: Scratch wound healing (cell proliferation and migration) under high osmotic pressure; type: cell-based; conditions: HCEC, 450 mOsM
Protocol: The human corneal epithelial cells were seeded onto 24 wells and incubated for 24 hours under low osmotic pressure conditions (314 mOsM). Then, after replacing the culture medium with a high osmotic pressure medium (450 mOsM), the cells were incubated for 48 hours. Then, the surface of the Petri dish was vertically scratched and washed twice, and then the culture medium was replaced with the high osmotic pressure medium again and simultaneously the cells were treated with different concentrations of the HAPLN1 protein-containing composition of the present disclosure (FIG. 2A). A reduction in the scratched area was confirmed by obtaining photographs using a microscope at a time of scratching (0 h) and after 30 hours (FIG. 2B). This was imaged and a ratio of an area filled with cells to an initial area was identified by using ImageJ (FIG. 2C).

[2] = test system: mouse dry eye model; experiment: Tear volume assay (Schirmer's test strip), low-humidity+scopolamine-induced dry eye disease model; type: in vivo, C57BL/6
Protocol: Corneal fluorescein score assay and tear volume assay were respectively performed on eyeballs of mice treated with the compositions of Preparation Examples 1, 2, and 3 prepared in Example 7 above by using a low-humidity+scopolamine-induced dry eye disease (DED) model.
While the test animals were raised in a desiccating stress chamber with a relative humidity of 30% or less, scopolamine hydrobromide (S0929, Sigma-aldrich) prepared in a concentration of 2.5 mg/mL in saline (0.9% normal saline, JW Pharmaceuticals Corp.) was subcutaneously injected thereinto four times a day (QID: 09:30 AM, 12:00 PM, 15:00 PM, and 17:30 PM) for 10 days at a dose of 10 mL/kg to induce dry eye disease. The subcutaneous injection was performed at the back while moving positions to minimize damage caused by repeated administration. […]
• (1) General anesthesia of the mice was induced (10 mg/kg xylazine and 100 mg/kg ketamine, intraperitoneal injection). • (2) After 3 hours from administration of scopolamine hydrobromide in the morning (at 9:30 AM), measurement was conducted. • (3) The volume of tear was measured by using a Schirmer's test strip cut to ½ thickness. […] Then, one drop (5 μl) of physiological saline was applied to the eyeballs. • (4) A length of a wet portion of the strip was measured by a ruler. […]

[3] = test system: CD45 in lacrimal glands; experiment: CD45 immunofluorescence in lacrimal gland, mouse dry eye model; type: in vivo, C57BL/6; conditions: after 16 days of drug treatment
Protocol: In this example, expression of CD45 was identified in lacrimal glands in order to identify in vivo anti-inflammatory effect of the HAPLN1 protein-containing composition of the present disclosure. That is, on the 2nd day after 16 days of drug treatment, eyes were enucleated and paraffin blocked. IHC-IF was performed on a section slide, and expression (green) of CD45 was identified by using an Anti-CD45 antibody. FIG. 12B is a graph illustrating quantified expression levels of FIG. 12A.

[4] = test system: corneal epithelial cells; experiment: Detached corneal epithelial cells (H & E staining), rabbit dry eye model; type: in vivo, New Zealand white rabbits
Protocol: (§1) Eyes of the rabbits including conjunctiva were enucleated, fixed with a specific fixing solution to be embedded into paraffin, and microsectioned, followed by staining and analysis according to the purpose. In this regard, the eyeballs were stained by hematoxylin & eosin (H & E) staining and detachment of corneal epithelial tissue was analyzed. After PAS staining, distribution of goblet cells in the conjunctiva was measured. In addition, after conjunctiva epithelium indentation (impression cytology), PAS staining was performed and distribution of goblet cells was measured.
(§2) After 15 days of eye examination, on the 1st day after 16 days of drug treatment, eyes were enucleated, subjected to histopathological analysis, and paraffin blocked. Tissue was stained in a section slide by H & E staining (FIG. 16A). The number of corneal epithelial cells detached in a range of 200 μm^2 was measured and quantified (FIG. 16B).

[5] = test system: goblet cells; experiment: Goblet cells (PAS staining), rabbit dry eye model; type: in vivo, New Zealand white rabbits
Protocol: as §1
as §2, with “PAS” for “H & E”, “17A).” for “16A).”, “goblet” for “corneal epithelial”, “cells” for “cells detached”, “17b).” for “16B).”

B1: hyaluronan and proteoglycan link protein 1 (HAPLN1) (protein, listed as Homo sapiens)
chain: MKSLLLLVLISICWADHLSDNYTLDHDRAIHIQAENGPHLLVEAEQAKVFSHRGGNVTLPCKFYRDPTAFGSGIHKIRIKWTKLTSDYLKEVDVFVSMGYHKKTYGGYQGRVFLKGGSDSDASLVITDLTLEDYGRYKCEVIEGLEDDTVVVALDLQGVVFPYFPRLGRYNLNFHEAQQACLDQDAVIASFDQLYDAWRGGLDWCNAGWLSDGSVQYPITKPREPCGGQNTVPGVRNYGFWDKDKSRYDVFCFTSNFNGRFYYLIHPTKLTYDEAVQACLNDGAQIAKVGQIFAAWKILGYDRCDAGWLADGSVRYPISRPRRRCSPTEAAVRFVGFPDKKHKLYGVYCFRAYN
- scratched surface covered by cell proliferation and migration ([1]; 5 and 10 ng/ml, 30 hours, normal cells about 82%): about 60%
- cell proliferation and migration phenomena of scratched surfaces ([1]; 5 to 100 ng/ml, 30 hours): observed over the entire area
- area covered with migrated cells compared with Cyclosporin A ([1]; regardless of concentration, vs 0.1 μM Cyclosporin A): higher than 0.1 μM of Cyclosporin A
- tear volume compared with Cyclosporine A ([2]; after 11 days): increased the tear volume far more than Cyclosporine A
- tear volume ([2]; eye drop 0.5, 5, 50 μg/ml, 5 μL b.i.d., regardless of the concentration, more than Cyclosporine A): consistently increased
- expression level of CD45 compared with Cyclosporine A [3]: reduced the expression level of CD45 more than Cyclosporine A
- expression of CD45 in lacrimal glands [3]: decreased
- number of detached corneal epithelial cells ([4]; after 16 days of drug treatment, concentration dependent): decreased
- degree of detachment of corneal epithelial cells ([4]; high concentration (50 μg/ml)): lowest
- number of goblet cells compared to the dry eye disease model ([5]; after 16 days of drug treatment, in proportion to the concentration): significantly increased
- number of goblet cells compared to Restasis ([5]; high concentration (50 μg/ml)): far more increased
